Results as given in patent US8143366B2, “Aryl carbamate oligomers for hydrolyzable prodrugs and prodrugs comprising same” (priority 2003, dated 2012).
Read-outs that look alike come from different tables or passages of the source.

Assays:
[1] = Ex vivo hydrolysis in rat plasma at 37° C.; assay type: in vitro ADME; details: Table 2 conjugates, average of three experiments ± s. d.
Protocol: Experiments using rat plasma were conducted in similar fashion to the esterase hydrolysis experiments. A stock, or reference, solution of each conjugate was made that was ˜15 mg/mL in DMSO. Two hundred microliters of stock were added to 800 μL 50 mM PBS buffer. Fifty microliters of this latter solution were added to 950 μL rat plasma and placed at 37° C. in a reciprocal waterbath shaker. At the appropriate time intervals, a 50 μl, aliquot was taken, added to 100 μl, ACN, and vigorously vortexed for 1 minute. The sample was centrifuged at 10,000 rpm for 5 minutes and 50 μL, of supernatant was then injected for HPLC analysis. A calibration curve for measuring the concentration of each conjugate was made.

[2] = biological target: T1, rabbit liver carboxylesterase (Oryctolagus cuniculus, UniProt P12337); assay: in vitro; details: purified rabbit liver carboxylesterase in PBS buffer, pH 7.4
T1 sequence (P12337 19-565): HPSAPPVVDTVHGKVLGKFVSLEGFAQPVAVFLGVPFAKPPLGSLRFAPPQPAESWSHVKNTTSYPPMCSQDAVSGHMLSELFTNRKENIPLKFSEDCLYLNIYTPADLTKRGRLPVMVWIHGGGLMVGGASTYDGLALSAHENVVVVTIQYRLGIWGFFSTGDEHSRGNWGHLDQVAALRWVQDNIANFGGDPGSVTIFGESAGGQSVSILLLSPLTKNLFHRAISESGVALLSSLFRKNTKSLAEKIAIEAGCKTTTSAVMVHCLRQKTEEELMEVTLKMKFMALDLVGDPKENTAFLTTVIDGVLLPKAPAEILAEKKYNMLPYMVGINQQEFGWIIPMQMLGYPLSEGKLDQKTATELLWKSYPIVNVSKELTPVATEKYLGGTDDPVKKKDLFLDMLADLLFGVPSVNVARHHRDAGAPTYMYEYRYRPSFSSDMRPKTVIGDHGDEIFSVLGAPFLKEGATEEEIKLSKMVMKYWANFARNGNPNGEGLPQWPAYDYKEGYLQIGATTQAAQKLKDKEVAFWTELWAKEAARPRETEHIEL
Protocol: (§1) Stock, or reference, solutions of hydrolyzable conjugates were first prepared at ˜2 mg/mL in DMSO. Working solutions of the hydrolyzable conjugates were then prepared in triplicate (working solutions A). Fifty microliters of stock conjugate were added to 5.0 mL 50 mM PBS buffer.
(§2) A stock solution of carboxylesterase was prepared by adding ˜2 mg esterase to 2.0 mL 50 mM PBS buffer. A working solution of carboxylesterase was prepared by diluting 50 uL of the stock solution with 5.0 mL 50 mM PBS buffer (working solution B).
(§3) Five hundred microliters of working solution B were then added to each working solution A (0.5 units enzyme and between 10-20 μM conjugate). The reaction mixtures were immediately vortexed and sampled for a time=0 analysis. The reaction solutions were incubated at 37° C. in a reciprocal waterbath shaker. At appropriate time intervals during incubation, 75 μL aliquots were taken and injected directly on HPLC for hydrolysis rate data. With each experiment, a new calibration curve for the particular conjugate was made.
(§4) The pseudo first-order rate constant, or “k”, is obtained from the slope of the natural log of the concentration of the conjugate versus time curve. The half-life is then calculated from k.

[3] = biological target: T1, rabbit liver carboxylesterase; details: pH 7.4
Protocol: as §1, §2, §3, §4

Row | Compound | half-life at […] [1] [h] | half-life [2] [h] | t1/2 [1] | half-life [1] [h] | half-life [3] [h]
1 | COCCOCCOCCOCCOc1ccc(OC(=O)N[C@@H](Cc2ccc(O)cc2)C(=O)NCC(=O)NCC(=O)N[C@@H](Cc2ccccc2)C(=O)N[C@@H](CC(C)C)C(=O)O)cc1 | 0.912 ± 0.0723 | 6.9 ± 0.1 |  |  | 
2 | CCCCCCCCCCCCOCCOCCOCCOCCOCCOCCOCCOCCOc1ccc(OC(=O)N[C@@H](Cc2ccc(O)cc2)C(=O)NCC(=O)NCC(=O)N[C@@H](Cc2ccccc2)C(=O)N[C@@H](CC(C)C)C(=O)O)cc1 | 2.33 ± 0.0723 | 10.4 ± 0.9 |  |  | 
3 | COCCOCCOCCOCCNC(=O)c1ccc(OC(=O)N[C@@H](Cc2ccc(O)cc2)C(=O)NCC(=O)NCC(=O)N[C@@H](Cc2ccccc2)C(=O)N[C@@H](CC(C)C)C(=O)O)cc1 |  | 0.04 ± 0.17 | ~Immediate Hydrolysis |  | 
4 | COCCOCCOCCOCCOC(=O)NC(Cc1ccc(OC(=O)N[C@@H](Cc2ccc(O)cc2)C(=O)NCC(=O)NCC(=O)N[C@@H](Cc2ccccc2)C(=O)N[C@@H](CC(C)C)C(=O)O)cc1)C(=O)OC (some centres unmarked) | 0.251 ± 0.0772 | 1.3 ± 0.04 |  |  | 
5 | COCCOCCOCCOCCNC(=O)c1cc(OC(=O)N[C@@H](Cc2ccc(O)cc2)C(=O)NCC(=O)NCC(=O)N[C@@H](Cc2ccccc2)C(=O)N[C@@H](CC(C)C)C(=O)O)cc(C(=O)NCCOCCOCCOCCOC)c1 |  | 0.03 ± 0.12 | ~Immediate Hydrolysis |  | 
6 | COCCOCCOCCOCCOc1ccc(OC(=O)N[C@@H](Cc2ccc(O)cc2)C(=O)NCC(=O)NCC(=O)N[C@@H](Cc2ccccc2)C(=O)N[C@@H](CC(C)C)C(=O)O)cc1OCCOC |  |  |  | 0.354 ± 0.0667 | 2.7 ± 0.2
7 | COCCOCCOCCOCCOCc1ccc(OC(=O)N[C@@H](Cc2ccc(O)cc2)C(=O)NCC(=O)NCC(=O)N[C@@H](Cc2ccccc2)C(=O)N[C@@H](CC(C)C)C(=O)O)cc1 | 0.027 ± 0.00733 | 1.4 ± 0.1 |  |  | 
